Measured values from article PMC3340011 (Biophysical Chemistry, 2011).
Like-named read-outs stand apart in the source and are kept apart here. Where no end group is shown, it is not given here.

B1: Fl-A_(1588): A_(1588) (residues 1588–1609 of Cav1.2 CTT) fluoresceinated at the N-terminus (peptide)
peptide: {5,6‑carboxyfluorescein}-FNATLFALVRTALRIKTEGNLE
B2: Fl-IQ′_(1650): IQ′_(1650) (residues 1650–1675 of Cav1.2 CTT) fluoresceinated at the N-terminus (peptide)
peptide: {5,6‑carboxyfluorescein}-ATFLIQEYFRKFKKRKEQGLVGKPSQ
B3: Fl-C_(1614): C_(1614) (residues 1614–1635 of Cav1.2 CTT) fluoresceinated at the N-terminus (peptide)
peptide: {5,6‑carboxyfluorescein}-ELRAIIKKIWKRTSMKLLDQVV

Tests used:
Assay in all cases: fluorescence polarisation
[1] = molecular target: T1, Full-length mammalian calmodulin, residues 1–148 (rat) (rat, UniProt P0DP29 1-149)
[2] = molecular target: T1, Full-length mammalian calmodulin, …; remark: listed apart in the source
[3] = molecular target: N-domain fragment of calmodulin, residues 1–80 (rat, UniProt P0DP29 2-81)
[4] = molecular target: C-domain fragment of calmodulin, residues 76–148 (rat, UniProt P0DP29 77-149)

Binder	Kd [1]	Kd [2]	Kd [3]	Kd [4]
B1	≤ 0.002 µM	–	–	–
B2	≤ 0.002 µM	2.5 ± 0.18 µM	1.1 ± 0.97 µM	≤ 0.01 µM
B3	≤ 0.002 µM	4.1 ± 0.37 µM	≤ 0.07 µM	≤ 0.07 µM
